Patent US20230139885A1 (FUNDACI INSTITUT DE RECERCA CONTRA LA LEUC MIA JOSEP …, published 2023)

Target: T1, human CD22 on cells (human, UniProt P20273 20-847)
T1 construct: whole, on cells; also called CD22-transfected 300.19 cells; CD22+ Raji cells
T1 sequence (looked up): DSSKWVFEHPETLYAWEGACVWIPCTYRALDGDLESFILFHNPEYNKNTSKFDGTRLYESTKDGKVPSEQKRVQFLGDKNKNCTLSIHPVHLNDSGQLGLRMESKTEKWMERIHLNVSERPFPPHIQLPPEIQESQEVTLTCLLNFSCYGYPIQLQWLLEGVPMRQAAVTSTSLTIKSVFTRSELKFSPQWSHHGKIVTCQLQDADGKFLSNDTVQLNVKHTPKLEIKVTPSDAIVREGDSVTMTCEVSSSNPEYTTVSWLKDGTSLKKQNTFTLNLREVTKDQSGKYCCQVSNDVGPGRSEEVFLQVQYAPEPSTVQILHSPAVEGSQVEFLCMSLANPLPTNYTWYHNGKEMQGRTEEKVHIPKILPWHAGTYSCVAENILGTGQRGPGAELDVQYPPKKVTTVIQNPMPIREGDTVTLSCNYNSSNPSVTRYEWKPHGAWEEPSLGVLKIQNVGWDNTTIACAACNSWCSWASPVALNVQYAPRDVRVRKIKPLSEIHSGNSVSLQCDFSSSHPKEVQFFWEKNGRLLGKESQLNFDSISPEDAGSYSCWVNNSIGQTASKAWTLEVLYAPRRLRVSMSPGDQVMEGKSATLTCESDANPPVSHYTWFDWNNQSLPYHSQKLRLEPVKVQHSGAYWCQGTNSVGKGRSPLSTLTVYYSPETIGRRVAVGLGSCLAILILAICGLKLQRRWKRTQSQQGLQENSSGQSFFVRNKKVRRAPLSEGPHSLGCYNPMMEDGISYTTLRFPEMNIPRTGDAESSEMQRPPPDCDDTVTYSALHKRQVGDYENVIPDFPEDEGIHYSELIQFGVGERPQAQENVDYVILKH
Assay: flow cytometry of hybridoma supernatants on CD22-transfected 300.19 cells
From the text: MoAbs reactive with human CD22 were generated by fusion of NS-1 myeloma cells with splenocytes from a Balb/c mouse previously immunized three times with 30×10⁶ CD22-transfected 300.19 cells. Supernatants from hybridoma-containing wells were screened by flow cytometry for moAbs reactive with CD22-transfected 300.19 cells. Three reactive hybridomas were chosen for further characterization and were subcloned by limiting dilution (clones hCD22.7, hCD22.316 and hCD22.401). The three antibodies were of the IgG1K isotype, as determined using a mouse moAb isotyping kit (Boehringer Mannheim, Mannheim, Germany). Antibody specificity was further validated using a CD22-transfected COS cell line (pUNO1-hCD22; InvivoGen, Toulouse, France), the cell lines Raji, Daudi, […], U266 and Jurkat, and peripheral blood (PB) mononuclear cells (PBMCs). CD22 epitope binding to the hCD22.7 clone was determined by crossblocking with an antibody against the N-terminal domain of CD22 (S-HCL-1). The CD22-specific scFv derived from the hCD22.7 clone was obtained using the mouse IgG Library Primer Set (Progen, Heidelberg, Germany).

binding result: binds
B1: anti-CD22 monoclonal antibody clone hCD22.7 (antibody, V domains shown)
VH: EVQLQESGPSLVKPSQTLSLTCSVTGDSITSGYWNWIRKFPGNKLEYMGYISYSGSTYYNPSLKSRISITRDTSKNQYYMQLKSVTTEDTATYYCARYPSPDAMNYWGQGTSVTVSS
VL: not shown
notes: also called hCD22.7 moAb; hCD22.7 clone
